# Target: recombinant human IGF-BP3 (GT2675 produced by GT) (UniProt P17936)
# Sequence (P17936 28-291): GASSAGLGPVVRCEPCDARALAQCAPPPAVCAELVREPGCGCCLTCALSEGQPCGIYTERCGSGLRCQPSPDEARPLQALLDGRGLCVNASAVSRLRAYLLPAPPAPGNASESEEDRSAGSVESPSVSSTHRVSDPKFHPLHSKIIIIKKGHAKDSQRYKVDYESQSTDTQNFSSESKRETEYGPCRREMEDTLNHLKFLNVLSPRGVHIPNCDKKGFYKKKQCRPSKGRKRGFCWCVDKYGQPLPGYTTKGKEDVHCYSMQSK
substance,measurement,value
"human meltrin α-STFLAG after cleavage of the prodomain with thrombin (mature meltrin α having the prodomain deleted, 68 kDa)",digestion of rhIGF-BP3 by meltrin α (SDS-PAGE and western blotting of rhIGF-BP3),the band corresponding to rhIGF-BP3 disappeared in the case of the meltrin α having the prodomain cleaved

# — patent publication US20080292619
